Consider 22 sequences from the DeepSol protein solubility set.

The nature of this data set: soluble on expression in E. coli; label from the status in PepcDB or PDB records.
For “RSYGPVFEEQPAHTLFPEGSAEEKVTLTCRARANPPATYRWKMNGTELKMGPDSRYRLVAGDLVISNPVKAKDAGSYQCVATNARGTVVSREASLRFGFLQEFSAEERDPVKITEGWGVMFTCSPPPHYPALSYRWLLNEFPNFIPADGRRFVSQTTGNLYIAKTEASDLGNYSCFATSHIDFITKSVFSKFSQLSLAAEDARQYAPSIKAKFPADTYALTGQMVTLECFAFGNPVPQIKWRKLDGSQTSKWLSSEPLLHIQNVDFEDEGTYECEAENIKGRDTYQGRIIIHAQPDWLDVITDTEADIGSDLRWSCVASGKPRPAVRWLRDGQPLASQNRIEVSGGELRFSKLVLEDSGMYQCVAENKHGTVYASAELTVQA”, the “soluble on expression in E. coli” value is “soluble”.

As for “RVDADNTALVDLWERSVRATHDFLSEADIVELYPQVRDLYLPAVEVWVLVDDDGVAQGFIGLNQAHVEMLFVEPGLRGRGIGRRLLDHARATWPRLSVDVNEQNPQACGFYRHYGFRQTGRSATDSAGRPFPLLHMSL”, the “soluble on expression in E. coli” value is recorded as “not soluble”.

Consider “RVLEDLGWYVAHNIPPQIILELIDMCAREDSPVDKVAVVCDVRSREFRGSLTQVVSELRDKQLDPTVLFLEARDEVLIKRFDNVRRTHPLQGSQTLQVGIERERTVLSPVKEDASVVIDTSDLSVHDLRRAIESSFRTIATRTQHVTIESFGFKHGSPRDADFVVDVRFLPNPFWVPELRPFRGVDKPVSDYVLSQKGAEEFLNNFVDMLKDMLPGYRHEGKNFITIGVGCTGGHHRSVAVSEELAKRIADQTTLDVSVVHRDINRH”, for which the “soluble on expression in E. coli” value was “not soluble”.

On to “RVLNLEEGPDAFGDYAREKLFVRARFAARQVLDSYSHDIPEEFMASLRRRFEHDINADEDDDDAMTPEERRKIQERRFALFNKVRLEALYASQAELLRARSERDVDPMIVDEVLFEIDSQIIAAEKSTR”, for which the “soluble on expression in E. coli” value is recorded as “not soluble”.

On to “SADISLDELIRKRGAAAKGRLNARPGVGGVRSRVGIQQGLLSQSTRTATFQQRFDARQKIGLSDARLKLGVKDAREKLLQKDARFRIKGKVQDAREMLNSRKQQTTVPQKPRQVADAREKISLKRSSPAAFINPPIGTVTPALKLTKTIQNLYDLDEDDDGIASVPTKQMKFAASGGFLHHMAGLSSSKLSMSKALPLTKVVQNDAYTAPALPSSIRTKALPVLTSPGT”, for which the “soluble on expression in E. coli” value is “soluble”.

Take “SAEAGTGEPSPSVEGEHGTEYDTLPSDTVSLSDSDSDLSLPGGAEVEALSPMGLPGEEDSGPDEPPSPPSGLLPATVQPFHLRGMSSTFSQRSRDIFDCLEGAARRAPSSVAHTSMSDNGGFKRPLAPSGRSPVEGLGRAHRSPASPRVPPVPDYVAHPERWTKYSLEDVTEVSEQSNQATALAFLGSQSLAAPTDCVSSFNQDPSSCGEGRVIFTKPVRGVEARHERKRVLGKVGEPGRGGLGNPATDRGEGPVELAHLAGPGSPEAEEWGSPHGGLQEVEALSGSVHSGSVPGLPPVETVGFHGSRKRSRDHFRNKSSSPEDPGAEV”: the “soluble on expression in E. coli” value is recorded as “soluble”.

Turning to “SAEEPEPDLGVAEGSEDQALEMPSWKAPEDIDPQPGSYEIRHYGPAKWVSTCVESLDWDSAIQTGFTKLNGYIQGKNEKEMKIKLTAPVTSYVEPGSSPFSLLMDSPVAKRIKNNF”, the “soluble on expression in E. coli” value was “soluble”.

For the sequence “SAENREPRCAIEAELDPVEYTLRKRLPHRLPRRPNDIYVNMKTDFKAQLARCQKLLDGGTRGQNACTEIYIHGLGLAINRAINIALQLQAGSFGSLQVAANTSTVELVDELEPETDSREPLTRVRNNSAIHIRVFRVTPK”, the “soluble on expression in E. coli” value was “soluble”.

Turning to “SAILALFFHMYSHNISSLSMKAQPERMHVLVLSSWRSGSSFVGQLFGQHPDVFYLMEPAWHVWMTFKQSTAWMLHMAVRDLIRAVFLCDMSVFDAYMEPGPRRQSSLFQWENSRALCSAPACDIIPQDEIIPRAHCRLLCSQQPFEVVEKACRSYSHVVLKEVRFFNLQSLYPLLKDPSLNLHIVHLVRDPRAVFRSRERTKGDLMIDSRIVMGQHEQKLKKEDQPYYVMQVICQSQLEIYKTIQSLPKALQERYLLVRYEDLARAPVAQTSRMYEFVGLEFLPHLQTWVHNITRGKGMGDHAFHTNARDALNVSQAWRWSLPYEKVSRLQKACGDAMNLLGYRHVRSEQEQRNLLLDLLSTWTVPEQIH”, the “soluble on expression in E. coli” value is given as “not soluble”.

In the case of “SALAVEADPAADRVSSLSNVSGVLGSQWGDEGKGKLVDVLAPRFDIVARCQGGANAGHTIYNSEGKKFALHLVPSGILHEGTLCVVGNGAVIHVPGFFGEIDGLQSNGVSCDGRILVSDRAHLLFDLHQTVDGLREAELANSFIGTTKRGIGPCYSSKVTRNGLRVCDLRHMDTFGDKLDVLFEDAAARFEGFKYSKGMLKEEVERYKKFAERLEPFIADTVHVLNESIRQKKKILVEGGQATMLDIDFGTYPFVTSSSPSAGGICTGLGIAPRVIGDLIGVVKAYTTRVGSGPFPTELLGEEGDVLRKAGMEFGTTTGRPRRCGWLDIVALKYCCDINGFSSLNLTKLDVLSGLPEIKLGVSYNQMDGEKLQSFPGDLDTLEQVQVNYEVLPGWDSDISSVRSYSELPQAARRYVERIEELAGVPVHYIGVGPGRDALIYK”, the “soluble on expression in E. coli” value is “soluble”.

Consider “SARIILERFLQGHEQTPPSKSVINSMLRDPSQIPDGVLANQVYQCIVNDCCYGPLVDCIKHAIGYEHEVLLRDLLLKKNLSFLDEDQLRAKGYDKTPDFILQVPVAVEGHIIHWIESKASFGDECSHHAYLHGQFWSYWNRFGPGLVIYWYGFIQELDCNRERGILLKASFPTDIVTLCHSTA”, for which the “soluble on expression in E. coli” value was “soluble”.

Consider “SASEVEEQIPVREEFFLCGGVETKIIKCGPWTNLFEKQDVSKPKQLIFIIPGNPGYSAFYVPFAKALYTLMKSRFPVWIISHAGFSVTPKDKKVLAAPQEESNAQKIEDVYGLNGQIEHKIAFLRAHVPKDVKLILIGHSVGTYMTLHVMKRVPELPVAHAFLLFPTIERMSESPNGKFATPFLCQFRYLLYATSYLLFKPCPEVIKSFIIQKLMGQMNIKLELPLTDILQPFCLA”, for which the “soluble on expression in E. coli” value is “soluble”.

With “SASFQRKGLQARILSTEEEEKLKRDQALVSAFKQQKLEKEAQKNWDLFYKRNSTNFFKDRHWTTREFEELRSCREYEGQKLTLLEAGCGVGNCLFPLLEEDLNLFAYACDFSPRAVDYVKQHPLYNAERCKVFQCDLTRDDLLDHVPPESVDAVTLIFVLSAVHPEKMRLVLLNVYKVLKPGRSVLFRDYGLNDHAMLRFKAGSKLGENFYVRQDGTRSYFFTDEFLAQLFVDAGYEEVVNEYVFRETVNKKEGLCVPRVFLQSKFRKPPKDPAPTSDSASL”, the “soluble on expression in E. coli” value is “soluble”.

“SATSVLCCLRCCRDGGTGHIPLKEMPAVQLDTQHMGIWGIGVATQKVNLNQIPLGRDMHSLVMRNDGALYHNNEEKNRLPANSLPQEGDVVGITYDHVELNVYLNGKNMHCPASGIRGTVYPVVYDDDSAILDCQFSEFYHTPPPGFEKILFEQQIF”: the “soluble on expression in E. coli” value is recorded as “soluble”.

Consider “SCSTSGCDLEEIPLDDDDLNTIEFKILAYYTRHHVFKSTPALFSPKLLRTRSLSQRGLGNCSANESWTEVSWPCRNSQSSEKAINLGKKKSSWKAFFGVVEKEDSQSTPAKVSAQGQRTLEYQDSHSQQWSRCLSNVEQCLEHEAVDPKVISIANRVAEIVYSWPPPQATQAGGFKSKEIFVTEGLSFQLQGHVPVASSSKKDEEEQILAKIVELLKYSGDQLERKLKKDKALMGHFQDGLSYSVFKTITDQVLMGVDPRGESEVKAQGFKAALVIDVTAKLTAIDNHPMNRVLGFGTKYLKENFSPWIQQHGGWEKILGISHEEVD”, for which the “soluble on expression in E. coli” value is reported as “soluble”.

For “SDITLESLRHIIAQVLPHRDPALVFKDLNVVSMLQEFWESKQQQKAAFPSEGVVVYESLPAPGPPFVSYVTLPGGSCFGNFQCCLSRAEARRDAAKVALINSLFNELPSRRITKEFIMESVQEAVASTSGTLDDADDPSTSVGAYHYMLESNMGKTMLEFQELMTIFQLLHWNGSLKALRETKCSRQEVISYYSQYSLDEKMRSHMALDWIMKERDSPGIVSQELRMALRQLEEARKAGQELRFYKEKKEILSLALTQICSDPDTSSPSDDQLSLTALCGYH”, the “soluble on expression in E. coli” value was “soluble”.

As to “SDKFLVRPDLRDLQGGGEEPAPTGGASGDLKSPDWRHLRAEGLSCDYTVLFGKAEADKIFRELEQEVEYFTGALAKVQVFGKWHSVPRKQATYGDAGLTYTFSGLTLTPKPWVPVLERVRDRVCEVTGQTFNFVLVNRYKDGCDHIGEHRDDERELAPGSPIASVSFGACRDFIFRHKDSRGKRPRRTVEVVRLQLAHGSLLMMNPPTNTHWYHSLPIRKRVLAPRVNLTFRKILPTKK”, the “soluble on expression in E. coli” value is “soluble”.

With “SDNGDWGHRLTHPVTLNVGGHLYTTSISTLQRYPDSMLGAMFRGDFPTTRDAQGNYFIDRDGTLFRYILNFLRTSELTLPVDFTELDLLRKEADFYQIEPLIQCLNDPKPLYPLDTFEQVVELSSTRKLSKYSNPVAVIITQLTITTKVHSLLEGISNNFTKWNKHMMDTRDCQVSFTFGPCDYHQEVSLRVHLMDYITKQGFTIRNTRVHHMSERANENTVEHHWTFCRLAYKVED”, the “soluble on expression in E. coli” value is on record as “soluble”.

In the case of “SDWKLEGSTQKVESPVLQGQEGILEETGEDGLPEGFQLLQIDAEGECQEGEILATGSTAWCSKNVQRKQRHWEKIVAAKKSKRKQEKERRKANRAENPGICPQHSKRFLRALTKDKLLEAKHSGPRLCIDLSMTHYMSKKELSRLAGQIRRLYGSNKKADRPFWICLTGFTTDSPLYEECVRMNDGFSSYLLDITEEDCFSLFPLETLVYLTPDSEHALEDVDLNKVYILGGLVDESIQKKVTFQKAREYSVKTARLPIQEYMVRNQNGKNYHSEILAINQVFDILSTYLETHNWPEALKKGVSSGKGYILRNSVE”, the “soluble on expression in E. coli” value was “soluble”.

“SEKELRSTILFNAYKKEVFTTNTGYKSLQKRLRSNWKIQSLKDEITSEKLIGVKLWITAGPREKFTAAEFEVLKKYLDSGGDILVMLGEGGESRFDTNINFLLEEYGIMVNNDAVVRNVYYKYFHPKEALGSDGVLNREISRAAGKAVPGVIDEENSGNNAQALTFVYPFGATLSVMKPAVAVLSTGSVCFPLNRPILAFYHSKNQGFGKLAVLGSCHMFSDQYLDKEENSKIMDVVFQWLTTGDIHLNQIDAEDPEISDYTMVPDTATLSEQLRVCLQEGDENPRDFTTLFDLSIYQLDTTCLPKVIKAHEELNVKHEPLQLVQPQFEMPLPALQPAVFPPSFRELPPPPLELFDLDETFSSEKARLAQITNKCTDEDLEFYVMKCGDILGVTSKLPKDQQDAKHILEHIFFQVVEFKKLNQEAH”: the “soluble on expression in E. coli” value is recorded as “soluble”.

Consider “SFRFMRDVEPEDPMFLMDPFAIHRQHMSRMLSGGFGYSPFLSITDGNMPGTRPASRRMQQAGAVSPFGMLGMSGGFMDMFGMMNDMIGNMEHMTAGGNCQTFSSSTVISYSNTGDGAPKVYQETSEMRSAPGGIRETRRTVRDSDSGLEQMSIGHHIRDRAHILQRSRNHRTGDQEERQDYINLDESEAAAFDDEWRRETSRFRQQRPLEFRRLESSGAGGRRAEGPPRLAIQGPEDSPSRQSRRYDW”, for which the “soluble on expression in E. coli” value is given as “soluble”.

As to “SFTMAQQSGGGLTRGSFPEGFVFGTASAAYQYEGAVKEDGRGQTIWDTFAHTFGKITDFSNADVAVDQYHRFEEDIQLMADMGMDAYRFSIAWSRIYPNGVGQVNQAGIDHYNKLIDALLAKGIQPYVTLYHWDLPQALEDKYKGWLDRQIVDDFAAYAETCFREFGDRVKHWITLNEPHTVAIQGYDAGLQAPGRCSVLLHLYCKAGNSGTEPYVVAHHFILAHAAAASIYRTKYKATQNGQLGIAFDVMWFEPMSNTTIDIEAAKRAQEFQLGWFADPFFFGDYPATMRARVGERLPRFTADEAAVVKGALDFVGINHYTTYYTRHNNTNIIGTLLNNTLADTGTVSLPFKNGKPIGDRANSIWLYIVPRGMRSLMNYVKERYNSPPVYITENGMDDSNNPFISIKDALKDSKRIKYHNDYLTNLAASIKEDGCDVRGYFAWSLLDNWEWAAGYSSRFGLYFVDYKDNLKRYPKNSVQWFKALLKT”, the “soluble on expression in E. coli” value is recorded as “soluble”.
